Source: US12673985B2, “Method for the treatment or prophylaxis of cancer by targeting the extracellular portion of keratin 14 (KRT14) residing on cancer cells” (Hudson Institute of Medical Research, priority 2019, dated 2026)
Entries after “also recorded” stand apart in the source; their conditions may differ.

What was measured:
[1] = test system: Murine ID8 ovarian tumour; assay: Treatment of established primary ID8 ovarian tumours in syngeneic mouse model; type: in vivo, C57BL/6 mice; details: 5 mg/kg i.p. bi-weekly for 3 weeks
Procedure: Mice with primary tumours (n=10/group) received mAb AN-17 at 5 mg/kg by intraperitoneal injection bi-weekly, for a period of 3 weeks. Control animals received an equivalent dose of isotype-matched control IgG kappa antibody (Control Group 1); or and equivalent volume of vehicle (PBS) alone (Control Group 2). Following 3 weeks of bi-weekly treatment (Mondays and Thursdays), all mice were culled and assessed for tumour size and weight. Two additional, non-tumour bearing animals were used as non-surgical controls.

[2] = molecular target: T1, full-length recombinant KRT14 protein (Homo sapiens, UniProt P02533); assay: Western blotting for KRT14 detection; type: binding; details: dilutions 1:1000 to 1:10,000; 1 μg protein
T1 construct: A 1 μg aliquot of full-length recombinant KRT14 protein (Abcam #ab73637) was separated by SDS PAGE; purchased Abcam ab73637
T1 sequence (P02533 1-472): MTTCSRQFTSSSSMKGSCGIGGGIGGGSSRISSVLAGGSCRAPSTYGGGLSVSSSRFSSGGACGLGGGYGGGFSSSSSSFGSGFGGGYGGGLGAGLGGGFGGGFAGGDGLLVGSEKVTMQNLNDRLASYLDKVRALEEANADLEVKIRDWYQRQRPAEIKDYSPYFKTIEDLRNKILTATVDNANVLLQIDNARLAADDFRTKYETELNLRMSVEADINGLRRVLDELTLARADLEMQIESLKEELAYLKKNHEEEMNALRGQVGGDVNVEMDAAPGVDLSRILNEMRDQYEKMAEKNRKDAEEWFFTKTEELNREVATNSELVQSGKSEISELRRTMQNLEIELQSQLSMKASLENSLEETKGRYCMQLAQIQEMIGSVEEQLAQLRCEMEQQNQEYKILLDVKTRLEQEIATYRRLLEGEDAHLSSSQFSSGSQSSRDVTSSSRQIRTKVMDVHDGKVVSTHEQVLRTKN
Procedure: Western Blot analyses. SDS-PAGE and western blotting were performed as previously described in Bilandzic et al. (2013) Mol Endocrinol, 2013. 27(3):466-79). Blots were probed using antibodies against KRT14 (1:1000, SAB4501657), mAb AN-17 and β-actin (1:20,000; Sigma-Aldrich, Castle Hill, Australia). Secondary antibodies HRP-conjugated goat anti-mouse, anti-rabbit and donkey anti-goat (1:50,000; Merck Millipore, Kilsyth, Australia) were used Bilandzic et al. (2013) Mol Endocrinol, 2013. 27(3):466-79). Protein bands were detected using Clarity Western ECL blotting substrate (Biorad #1705061) and visualized using a ChemiDoc (Trade Mark) MP System (Bio-Rad, #1708280).
A 1 μg aliquot of full-length recombinant KRT14 protein (Abcam #ab73637) was separated by SDS PAGE and transferred to PVDF membrane using standard procedures (PMID: 23952987). The membrane was probed with mAb AN-17 at dilutions of 1:1000, 1:5000 and 1:10,000. Secondary antibody was goat anti-mouse HRP conjugate (1:50,000 dilution), with detection of KRT14 using chemiluminescence according to standard protocols (PMID: 23952987; Rainczuk et al., J Proteome Res. 2013; 12(9):4074-88).

B1: mAb AN-17: monoclonal anti-KRT14 antibody; heavy chain variable region SEQ ID NO:3, light chain variable region SEQ ID NO:5 (clone AN-17A RG4.E5b.A7.B4) (antibody, listed as Mus musculus, V domains shown)
VH: QVQLKESGPGLVAPSQSLSITCTVSGFSLSRYSVHWVRQPPGKGLEWLGMIWGGGSTDYNSALKSRLSISKDNSKSQVFLKMNSLQTDDTAMYYCARKDYGYSYFDYWGQGTTLTVSS
VL: DVLMTQTPLSLPVSLGDQASISCRSSQSIVHSNGNTYLEWYLQKPGQSPKLLIYKVSNRFSGVPDRFSGSGSGTDFTLKISRVEAEDLGVYYCFQGSHVPFTFGSGTKLEIKRADAAPTVS
[1]
  adverse effects during treatment: had no observable adverse effects on animals; also recorded: no adverse effects noted during the treatment period
[1]; n=10/group
  primary ovarian tumours at cull / tumour progression: no tumours could be identified; also recorded: complete regression
[2]
  detection of KRT14 protein by western blotting: successfully detected KRT14 protein
